# Results published in patent US10632208B2, “Peptide-mediated drug delivery across epithelial barrier” (Purdue Research Foundation, priority 2017, dated 2020).
# B1: LAP: Listeria adhesion protein, alcohol acetaldehyde dehydrogenase of Listeria monocytogenes, 866 aa, 94 kDa; recombinant, histidine-tagged form SEQ ID NO: 10 (protein)
# chain: MAIKENAAQEVLEVQKVIDRLADNGQKALKAFESYNQEQVDNIVHAMALAGLDQHMPLAKLAVEETGRGLYEDKCIKNIFATEYIWNNIKNNKTVGVINEDVQTGVIEIAEPVGVVAGVTPVTNPTSTTLFKAIIAIKTRNPIIFAFHPSAQRCSSAAAKVVYDAAIAAGAPEHCIQWVEKPSLEATKQLMNHDKVALVLATGGAGMVKSAYSTGKPALGVGPGNVPAYIDKTAKIKRSVNDIILSKSFDQGMICASEQAVIVDKEVAKEVKAEMEANKCYFVKGAEFKKLESYVINPEKGTLNPDVVGKSPAWIANQAGFKVPEDTKILVAEIKGVGDKYPLSHEKLSPVLAFIEAANQAEAFDRCEEMLVYGGLGHSAVIHSTDKEVQKAFGIRMKACRIIVNAPSAQGGIGDIYNGFIPSLTLGCGSYGKNSVSQNVSATNLLNVKRIADRRNNMQWFKLPPKIFFEKYSTQYLQKMEGVERVFIVTDPGMGSFKYVDVVIEHLKKRGNDVAYQVFADVEPDPSDVTVYKGAELMKDFKPDTIIALGGGSAMDAAKGMWLFYEHPEASFFGLKQKFLDIRKRTFKYPKLGGKAKFVAIPTTSGTGSEVTPFAVITDKENNIKYPLADYELTPDVAIVDAQYVTTVPAHITADTGMDVLTHAIESYVSVMASDYTRGLSIRAIELVFENLRESVLTGDPDAREKMHNASALAGMAFANAFLGINHSLAHKIGPEFHIPHGRANAILMPHVIRYNALKPKKHALFPRYESFRADEDYARISRIIGFPAATTEEGVKSLVDEIIKLGKDVGIDMSLKGQNVAKKDLDAVVDTLADRAFMDQCTTANPKQPLVSELKEIYLEAYKGV
# modifications: Listeria monocytogenes
# Legend:
# [1] = tested on: NF-κB; assay: NF-κB luciferase reporter assay in RAW 264.7 cells; type: cell-based, murine
# Description: The NF-κB Luciferase reporter RAW 264.7 cell line (Novus Biologicals), which expresses an optimized Renilla luciferase reporter gene (RenSP) under the transcriptional control of an NF-κB response element, was used. The cells were seeded (1×10^5 cells/well) into 96-well luminometer-compatible plates for 16 h and then treated with analytes for 6 h. Media from each well were aspirated, and then 100 μL of ice-cold PBS was added to each well. The plates were then frozen solid at −80° C. overnight to completely lyse the cells, thawed back to room temperature, and luciferase assays were performed using the LightSwitch Luciferase assay kit (Novus Biologicals). Luminescence was measured as the relative luminescence units (RLU) using Spectramax (Spectramax, Molecular Devices) and reported as the relative fold change compared with that of the control cells that were treated with media alone. Recombinant human or mouse TNF-α (R&D Systems) and polymyxin B, LPS (E. coli Serotype R515, Re, TLR grade), and proteinase K (each from Sigma-Aldrich) were used.
# [2] = tested on: IL-6; assay: ELISA of IL-6 in Caco-2 cell supernatants; type: cell-based, human; details: recombinant LAP 1 μg/mL, 8 h
# Description: A semi-quantitative membrane-based RayBio Human Inflammation Antibody Array kit (Ray Biotech) was used to analyze a panel of 40 inflammatory mediators in Caco-2 cell supernatant infected either with the WT or lap^− strain (MOI, ˜50) at 37° C. for 1 h. After killing the extracellular bacteria by gentamicin (50 μg/mL), the Caco-2 cells were incubated for an additional 7 h at 37° C. Recombinant LAP (1 μg/mL) from ClearColi was incubated for 8 h with Caco-2 cells. After immunoblotting, the reaction intensity was quantified using NIH ImageJ software. The data were normalized and expressed as the mean fold changes as a ratio of lap^−/WT±SEM. For the ELISA, Caco-2 cell supernatants were centrifuged (2,000 rpm at 4° C. for 10 min) following treatment as above, and the quantification of TNF-α and IL-6 in was performed using human TNF-α and IL-6 ELISA kits (Ray Biotech) as per manufacturer's instruction. The quantification of TNF-α and IL-6 protein levels was performed in the ileal tissue lysates from mice using mouse TNF-α and IL-6 ELISA kits (Ray Biotech) as per manufacturer's instruction.
# [3] = tested on: Caco-2 cells; assay: Caco-2 cell viability assay (lactate dehydrogenase release); type: cell-based, human; details: Caco-2 cells treated with purified recombinant LAP
# Description: Caco-2 cell viability assay. To determine Caco-2 viability, cell culture supernatants from Caco-2 cells infected with WT, lap^−, lap^−lap^+, ΔinlA and ΔinlA inlA^+ strains (MOI 50, 2 h) grown on Transwell inserts or treated with the purified recombinant LAP for 24 or 48 h were assayed for lactate dehydrogenase release (Thermo Fisher Scientific). Two controls were included for calculation of percent cytotoxicity (LDH release). Low control consisted of supernatant from untreated Caco-2 cells with no exposure to bacteria. High control was from cells treated with 0.1% Triton X-100 for one minute.
molecule,measurement,setting,value
B1,NF-κB activation ability after polymyxin-B treatment,[1],retained the NF-κB activation ability
same,NF-κB activation after proteinase-K treatment,[1],abolished
same,NF-κB activation ability after heat treatment,"[1]; 100° C., 10 min",abolished the NF-κB activation ability
same,NF-κB activation,"[1]; purified proteins, LPS positive control",NF-κB activation in a concentration-dependent manner
same,IL-6 production,[2],significantly higher levels
same,cytopathic or cytotoxic effects (LDH assay),[3],without causing any cytopathic or cytotoxic effects
